B1: MLL5 (parent)
chain: EQIAERKRKMVSWEASSLGLVTAA
B2: CDS2 (parent)
chain: IHSIALSTFASLIGPFGGFFASGF

Variants of: B1
Experiment: protein stability index of a GFP-peptide fusion (GPS, HEK-293T) (PSI 1-6); higher = more stable
Settings: c terminus: a fixed tail appended
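Note: lentivirally expressed fusions sorted by FACS into six bins by GFP to DsRed ratio, PSI derived from sequencing read proportions per bin multiplied by bin number.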

Protein stability index of substitutions, site by site:
K7: T 2.69; F 2.74; E 4.03; I 2.98; H 3.36; Q 3.21; M 1.7; G 2.93; C 2.19; V 3.02; Y 2.29; L 1.97
S12: D 2.85; P 2.59; E 3.92; N 3.19; V 2.68; L 2.37; Y 2.22; C 2.36; M 3.36; A 3.35; R 3.36; H 2.35; K 2.59; Q 2.33; F 2.16
I3: N 3.64; Y 3.14; S 3.05; P 3.56; Q 3.09; T 3.88; A 3.18; F 2.72; L 3.07; V 3.63; C 2.46; H 3.7; G 3.29; R 2.76; E 2.29; K 3.1; D 4.19
W13: P 4.38; Q 4.56; G 4.82; L 3.86; M 3.07; H 3.97; A 4.19; V 4; E 4.77; N 4.02; S 4.33; Y 3.29; K 3.85; T 3.77; D 4.67
E1: C 1.44; Y 2.41; L 2.53; P 3.16; V 2.55; W 1.69; M 2.41; K 4; N 3.06; I 2.78; Q 3.2; T 2.67; R 2.77; F 1.42; D 3.35; A 2.18; G 3.27
A15: R 3.98; S 2.94; C 2.28; W 1.84; Q 2.93; Y 2.26; L 2.32; K 2.74; N 2.67; P 3.77; M 2.64; E 3; V 2.56; H 3; I 2.56; F 2.08
R8: A 3.81; F 2.01; S 2.97; P 3.25; W 2.72; K 3.56; T 3.89; V 2.65; C 2.76; Y 2.86; N 2.82; I 2.66; H 3.64; M 3.17; D 2.85; L 2.79; E 3.98
M10: S 3.69; Y 2.89; H 3.44; G 4.16; K 3.7; F 2.93; E 4.23; C 3.29; I 2.81; Q 3.95; V 2.82; T 3.55; A 3.83; N 3.5; D 4.4; R 4.01; L 3.56
E5: F 2.68; K 3.08; V 2.44; P 3.01; A 2.25; W 1.8; D 3.49; S 2.13; I 2.33; C 1.87; G 2.95; Q 2.79; H 2.12; N 2.07
Q2: K 3.05; T 3.25; N 2.37; V 2.79; A 2.75; H 2.68; C 1.97; S 2.55; M 2.21; D 3.66; P 2.84; F 2.58
K9: M 2.38; S 3.51; C 1.53; F 2.06; W 1.88; N 3.84; I 2.34; H 1.76; E 3.52; R 3.06; G 3.73; Q 2.59; T 2.31; V 2.46; Y 2.97; L 2.27; A 2.52
S16: I 1.94; H 1.57; D 2.86; L 1.99; E 3.02; C 2.59; K 3.23; R 3.57; P 3; Q 3.05; A 3.11
R6: M 2.88; D 3.98; Q 2.76; T 3.54; F 2.67; G 3.38; W 2.09; A 4.14; E 3.56; H 2.98; N 3; Y 2.78; K 3.18; C 3.24; I 1.65; L 2.65
A4: D 3.67; I 2.38; V 2.56; Y 2.8; P 3.85; R 3.59; H 3.39; L 2.95; K 3.36; Q 2.34; S 3.34
E14: N 3.39; C 2.49; F 1.97; Y 2.52; M 2.24; T 3; A 2.8; Q 2.32; S 2.47; R 2.31; H 2.85; G 2.2; I 2.22; V 1.97; D 2.07; P 2.44; L 2.95
V11: M 2.54; Q 3.16; S 2.99; W 3.34; P 3.55; E 4.18; H 3.24; F 2.63; L 2.63; G 3.39; C 2.87; D 2.81; T 2.87; Y 3.14

Variants of: B2
Experiment: as above
Settings: c terminus: a fixed tail appended

Protein stability index: each site, then its substitutions
F24: S 2.63; Q 2.45; Y 2.52; C 4.83; N 3.11; M 2.8; A 2.18; H 3.27; P 3.79; I 2.91; T 3.42; G 4.4; W 3.66; D 3.08; L 3.68; V 3.32
S22: C 2.86; F 3.51; I 2.2; W 2.44; E 2.95; P 3.67; G 3.59; H 2.03; K 1.71; V 2.54; M 3.08; T 2.96; N 2.57; L 2.7; D 2.53; Q 2.57; R 3.24
F19: W 3.48; N 3.42; I 2.97; L 3.19; T 3.17; S 2.78; M 4.02; Q 3.63; Y 4.14; P 2.01; V 2.86; K 3.44; H 2.47; G 3.81; R 2.72
A21: P 2.4; M 2.69; E 2.24; L 2.75; Y 3.42; T 3.65; V 2.06; F 2.83; R 2.9; S 2.54; H 4.77; I 3; W 2.61; K 2.22; N 2.8; D 4.2; C 3.33; Q 3.25
G23: E 4.01; S 1.46; Y 2.63; C 2.54; F 2.67; N 3.46; M 3.23; P 2.73; K 2.05; H 2.2; T 2.53; Q 2.79; V 2.14; L 1.42; I 1.59; D 2.37
F20: C 4.04; T 3.03; K 2.68; R 2.86; S 2.52; N 2.68; V 3.06; H 2.66; I 2.13; P 3.39; L 2.98; M 2.88; A 1.97; Y 1.92
